These results are taken from patent publication US7745159.

The target in assay [1] is antigen defined by MAb OV569 on human carcinoma cell surfaces (human). Briefly: flow cytometry, OV569 supernatant on lung carcinoma line H3754, against an irrelevant MAb.
The target is the same in assay [2]. Description: flow cytometry, OV569 supernatant on ovarian carcinoma line H4014, against an irrelevant MAb. (Flow cytometry measures light scatter and fluorescence of single cells or particles in a stream.)
Assay [3] shares this target. Briefly: flow cytometry, OV569 supernatant on ovarian carcinoma line H4012, against an irrelevant MAb.
Assay [4] shares this target. Briefly: flow cytometry, OV569 supernatant on lung carcinoma line H3776, against an irrelevant MAb.
Assay [5] shares this target. Description: flow cytometry, OV569 supernatant on ovarian carcinoma line H4007, against an irrelevant MAb.
For assay [6] the target is unchanged. Briefly: flow cytometry, OV569 supernatant on ovarian carcinoma line H3907, against an irrelevant MAb.
The target is the same in assay [7]. Briefly: flow cytometry, OV569 supernatant on ovarian carcinoma line H3750, against an irrelevant MAb.
Assay [8] shares this target. Description: flow cytometry, OV569 supernatant on ovarian carcinoma line H4002, against an irrelevant MAb.
The target is the same in assay [9]. Description: flow cytometry, OV569 supernatant on ovarian carcinoma line H4004, against an irrelevant MAb.
The target is the same in assay [10]. Description: flow cytometry, OV569 supernatant on ovarian carcinoma line H3909, against an irrelevant MAb.
Assay [11] has the same target. Briefly: flow cytometry, OV569 supernatant on ovarian carcinoma line H3538, against an irrelevant MAb.
Assay [12] has the same target. Description: flow cytometry, OV569 supernatant on lung carcinoma line H3963, against an irrelevant MAb.
For assay [13] the target is unchanged. Briefly: flow cytometry, OV569 supernatant on ovarian carcinoma line H3759, against an irrelevant MAb.
The target is the same in assay [14]. Description: flow cytometry, OV569 supernatant on ovarian carcinoma line H3633, against an irrelevant MAb.
Assay [15] has the same target. Briefly: flow cytometry, OV569 supernatant on lung carcinoma line H4013, against an irrelevant MAb.
Assay [16] has the same target. Briefly: flow cytometry, OV569 supernatant on ovarian carcinoma line H4006, against an irrelevant MAb.
The target is the same in assay [17]. Description: flow cytometry, OV569 supernatant on lung carcinoma line H2987, against an irrelevant MAb.
For assay [18] the target is unchanged. Briefly: flow cytometry, OV569 supernatant on ovarian carcinoma line H3659.5, against an irrelevant MAb.
Assay [19] has the same target. Briefly: flow cytometry, OV569 supernatant on lung carcinoma line H2981, against an irrelevant MAb.
Assay [20] has the same target. Description: flow cytometry, OV569 supernatant on ovarian carcinoma line H4010-1, against an irrelevant MAb.

In the case of monoclonal antibody OV569, the LFE(sample)/LFE(control) in assay [1] was 1.59; in assay [2], 1; in [3] it was 1; in assay [4] it was 1.33; in [5] it was 8.72; in assay [6] it was 3.85. Also, the LFE(sample)/LFE(control) in [7] stood at 2.57; in assay [8], 8.48; in assay [9], 2.43; in assay [10] it was 3.84; in assay [11] it was 2.55; in assay [12], 1.11. The LFE(sample)/LFE(control) amounted to 6.74 in assay [13]; 1 in assay [14]; 7 in assay [15]; 2.53 in [16]; 1.25 in assay [17]; 5.63 in assay [18]. Moreover, the LFE(sample)/LFE(control) was 1.3 in [19] and 1.12 in assay [20].
